Laboratory results reported in doi:10.1101/310227.
Ends that are not written are not given here.

Experiments:
[1] = biological target: Halo-tagged isopeptide-blocker (Spy0128 β-strand11 mimic) (Streptococcus pyogenes); assay: pull-down
[2] = biological target: Spy0128 polyprotein I91-Spy0128-I91-Spy0128-I91 (not stated | Streptococcus pyogenes); assay: AFM force spectroscopy

Molecule | percent of modified Spy0128 after enrichment on Magne-HaloTag-beads [1] | percent of AFM traces with at least one modified Spy0128 [2] | percent of Spy0128 blocked [2]
Spy0128 polyprotein I91-Spy0128-I91-Spy0128-I91 | 60% | – | –
MEFTDKDMTITFTNKKDAEEDIRSEDLYFQSDNTTPE (also: Halo-tagged, site not given here) [Halo-tagged isopeptide-blocker (Spy0128 β-strand11 mimic)] | – | 32.5% | 21.1%
